Measurements published in paper PMC12279946.
Residue numbers refer to the chain shown, from its start.

Experiments:
[1] = molecular target: T1, SprT-BR-L99S (UniProt Q9H040 28-245, L99S); assay: NMR 1H,15N-HSQC; 100 uM protein, 200 uM DNA; no ubiquitin; line broadening comparable to WT; NMR: 20 mM HEPES/KOH pH 7.2, 150 mM KCl, 10% D2O, 308 K; 100 uM protein, 2x dsDNA, 5x Ub1; settings: protein: recombinant; blunt
T1 sequence: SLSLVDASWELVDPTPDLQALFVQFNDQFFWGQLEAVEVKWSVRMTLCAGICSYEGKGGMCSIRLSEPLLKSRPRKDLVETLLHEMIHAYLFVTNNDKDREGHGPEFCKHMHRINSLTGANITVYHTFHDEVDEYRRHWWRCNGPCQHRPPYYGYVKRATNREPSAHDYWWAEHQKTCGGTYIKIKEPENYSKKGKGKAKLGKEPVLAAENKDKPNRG

[2] = molecular target: SprT-BR;mono-ubiquitin (Ub1) (Homo sapiens?;, UniProt Q9H040;P0CG48 28-245;1-76, |); assay: NMR 1H,15N-HSQC; 200 uM DNA + 500 uM Ub1; synergistic severe line broadening; NMR: 20 mM HEPES/KOH pH 7.2, 150 mM KCl, 10% D2O, 308 K; 100 uM protein, 2x dsDNA, 5x Ub1; settings: protein: recombinant;recombinant; copies: 1;1; blunt
[3] = molecular target: T2, SprT-BR (UniProt Q9H040 28-245); assay: NMR 1H,15N-HSQC; 100 uM protein, 200 uM DNA; no ubiquitin; line broadening in ZBD-BR; NMR: 20 mM HEPES/KOH pH 7.2, 150 mM KCl, 10% D2O, 308 K; 100 uM protein, 2x dsDNA, 5x Ub1; settings: protein: recombinant; blunt
T2 sequence: T1 sequence with S72L

Measured: binding result

B1: 15-bp dsDNA (NMR) (dsDNA)
DNA 1: CCTTGCTAGGACATC
DNA 2: GATGTCCTAGCAAGG
binds: all assays above
